T1: hsGLUT4 L61A (human, UniProt P14672 1-509)
T1 sequence: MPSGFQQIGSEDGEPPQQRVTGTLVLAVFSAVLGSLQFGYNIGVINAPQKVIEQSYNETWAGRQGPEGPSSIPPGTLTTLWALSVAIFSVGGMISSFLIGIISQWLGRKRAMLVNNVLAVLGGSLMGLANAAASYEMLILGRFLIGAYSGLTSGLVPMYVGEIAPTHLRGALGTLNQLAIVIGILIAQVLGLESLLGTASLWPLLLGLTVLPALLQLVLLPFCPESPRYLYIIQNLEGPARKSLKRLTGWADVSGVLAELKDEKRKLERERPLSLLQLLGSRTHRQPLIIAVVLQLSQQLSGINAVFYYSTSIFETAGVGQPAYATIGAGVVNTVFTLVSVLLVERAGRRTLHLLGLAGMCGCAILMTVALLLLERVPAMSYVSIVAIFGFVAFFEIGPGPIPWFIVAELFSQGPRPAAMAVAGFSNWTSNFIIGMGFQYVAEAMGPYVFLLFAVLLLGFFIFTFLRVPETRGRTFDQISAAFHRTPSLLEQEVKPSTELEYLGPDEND

T2: hsGLUT4 F307A (human, UniProt P14672 1-509)
T2 sequence: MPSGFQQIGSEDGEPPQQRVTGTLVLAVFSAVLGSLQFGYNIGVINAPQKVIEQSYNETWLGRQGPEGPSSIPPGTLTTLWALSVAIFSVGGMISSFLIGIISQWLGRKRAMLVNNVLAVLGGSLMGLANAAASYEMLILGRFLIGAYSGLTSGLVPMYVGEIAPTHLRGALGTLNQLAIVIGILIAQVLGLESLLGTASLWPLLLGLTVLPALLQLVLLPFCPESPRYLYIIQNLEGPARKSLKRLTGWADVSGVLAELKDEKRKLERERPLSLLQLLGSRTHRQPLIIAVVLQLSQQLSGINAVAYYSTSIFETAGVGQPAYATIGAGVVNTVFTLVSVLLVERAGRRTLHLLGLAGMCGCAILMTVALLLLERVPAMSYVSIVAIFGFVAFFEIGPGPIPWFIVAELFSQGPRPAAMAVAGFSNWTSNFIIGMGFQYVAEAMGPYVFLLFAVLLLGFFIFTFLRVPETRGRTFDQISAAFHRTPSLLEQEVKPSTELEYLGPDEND

T3: hsGLUT4 F314A (human, UniProt P14672 1-509)
T3 sequence: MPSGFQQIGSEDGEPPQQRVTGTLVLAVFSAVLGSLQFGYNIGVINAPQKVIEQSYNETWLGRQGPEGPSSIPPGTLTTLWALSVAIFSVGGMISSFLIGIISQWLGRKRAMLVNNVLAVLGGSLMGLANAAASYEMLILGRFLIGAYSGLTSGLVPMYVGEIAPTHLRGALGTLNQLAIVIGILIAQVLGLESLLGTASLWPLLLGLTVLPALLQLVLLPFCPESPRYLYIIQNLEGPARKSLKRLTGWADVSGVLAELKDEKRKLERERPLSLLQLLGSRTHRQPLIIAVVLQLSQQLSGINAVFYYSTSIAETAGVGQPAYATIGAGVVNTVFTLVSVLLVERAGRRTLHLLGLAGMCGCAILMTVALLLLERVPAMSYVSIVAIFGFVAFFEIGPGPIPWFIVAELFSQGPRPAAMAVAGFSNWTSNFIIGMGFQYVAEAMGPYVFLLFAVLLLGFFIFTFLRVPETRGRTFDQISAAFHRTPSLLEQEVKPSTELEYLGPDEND

T4: hsGLUT4 E507A (human, UniProt P14672 1-509)
T4 sequence: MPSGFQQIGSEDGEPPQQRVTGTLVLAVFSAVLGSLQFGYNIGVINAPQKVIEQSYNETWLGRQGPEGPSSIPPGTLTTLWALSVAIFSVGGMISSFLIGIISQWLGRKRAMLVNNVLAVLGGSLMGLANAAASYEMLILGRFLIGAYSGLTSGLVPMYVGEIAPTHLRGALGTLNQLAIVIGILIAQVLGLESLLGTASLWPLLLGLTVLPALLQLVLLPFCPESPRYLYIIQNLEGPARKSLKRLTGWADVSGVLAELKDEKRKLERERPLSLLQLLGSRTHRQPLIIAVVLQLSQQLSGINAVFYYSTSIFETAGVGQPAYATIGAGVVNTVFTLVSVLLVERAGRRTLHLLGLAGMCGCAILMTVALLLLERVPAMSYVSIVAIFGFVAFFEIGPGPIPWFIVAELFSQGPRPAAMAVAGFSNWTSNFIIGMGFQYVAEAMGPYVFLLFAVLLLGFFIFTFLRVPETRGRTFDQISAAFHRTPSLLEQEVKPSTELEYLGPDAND


How the values were obtained:
Assay in all cases: flow cytometry, alanine-scan library in HEK-293T
hsGLUT4 L61A = target: T1, hsGLUT4 L61A
Method: (§1) Because of the state-dependence of the isolated MAbs, we next wished to understand the mechanism by which each MAb could recognize GLUT4 in its different conformations. The residues required for binding of each MAb were determined using shotgun mutagenesis comprehensive alanine scanning (Davidson E & Doranz B J (2014) A High-Throughput Shotgun Mutagenesis Approach to Mapping B-cell Antibody Epitopes. Immunology, which is hereby incorporated by reference in its entirety). All residues of hsGLUT4 were individually mutated to alanine, with existing alanines changed to serines. Mutations were obtained for 508 of the 509 residues of GLUT4 (excluding the initiating methionine). The entire mutation library was transfected into human HEK-293T cells in a 384-well array format (one clone per well) and assessed for immunoreactivity using high-throughput flow cytometry.
(§2) HEK-293T cells were transfected by CaPO₄ with plasmids in 6-well culture plates (Falcon) at 750,000 cells/well. At 48 hours post transfection, cells were stained with anti-V5 and anti-GLUT4 MAbs (purified scFv, 2 μg/ml) followed by biotinylated goat anti-mouse or human antibody (1:500) and streptavidin-PerCP (1:500). Fluorescence was detected using an Intellicyt high-throughput flow cytometer (HTFC; Intellicyt, Albuquerque, N. Mex.). For cell permeabilization, cells were treated with saponin at 0.1% in PBS for 20 minutes. To discriminate intact (live) and permeabilized (dead) cells without the use of detergent, propidium iodide (PI) was added to HEK-293T cells at 1 ug/ml just prior to flow cytometry. Where indicated, cytochalasin B (Sigma) was used at a final concentration of 10 uM and phloretin (Sigma) was used at a final concentration of 100 uM, each added in 10% NGS for 30 minutes prior to antibody staining as well as included with the primary antibody.

hsGLUT4 F307A = target: T2, hsGLUT4 F307A
Method: as §1, §2

hsGLUT4 F314A = target: T3, hsGLUT4 F314A
Method: as §1, §2

hsGLUT4 E507A = target: T4, hsGLUT4 E507A
Method: as §1, §2

Molecule | % of binding to wild type GLUT4 (hsGLUT4 L61A) | % of binding to wild type GLUT4 (hsGLUT4 F307A) | % of binding to wild type GLUT4 (hsGLUT4 F314A) | % of binding to wild type GLUT4 (hsGLUT4 E507A)
1F8 (antibody) | 90% | 84% | 91% | 127%
AB111 (Fc fusion, Bivalent scFv-Fc; also called MAb AB111; not shown: Fc fragment of human IgG1, cloned in frame with the scFv) scFv: ALTQPSSVSANPGETVKITCSGSGSWYGWFQQKSPGSAPVTVIYSNDKRPSDIPSRFSGSKSGSTSTLTITGVQVEDEAVYYCGNWDIFGAGTTLTVLGQSSRSSGGGGSSGGGGSAVTLDESGGGLQTPGGALSLVCKASGFTFSSHGMGWVRQAPGKGLEWVASISTGRYTFYAPAVKGRATISRDNGQSTVRLQLNNLRAEDTATYYCTKCAGLNGCGGGEIDAWGHGTEVIVSS | 80% | 108% | 166% | 119%
AB108 (Fc fusion, Bivalent scFv-Fc; also called MAb AB108; not shown: Fc fragment of human IgG1, cloned in frame with the scFv) scFv: ALTQPSSVSANLGGTVKITCSGSSGSYGWYQQKAPGSAPVTLIYRNDKRPSDIPSRFSGSESGSTGTLTITGVQAEDEAVYFCGGYDSSAGYAAFGAGTTLTVLGQSSRSSGGGGSSGGGGSAVTLDESGGGLQTPGGALSLVCKASGFTFSSHGMGWVRQAPGKGLEWVGSISTGRYTFYAPAVKGRATISRDNGQSTLRLQLNNLRAEDTGTYYCTKCAGLNGCGGGEIDAWGHGTEVIVSS | 13% | 74% | 92% | 53%
AB101 (scFv, Chicken-derived clone used as a control; the four lead clones were tested as scFv-human IgG1 Fc; also called MAb AB101) scFv: ALTQPSSVSANPGETVKITCSGSSNSYGWYQQKSPGSAPVTVIYYNDKRPSDIPSRFSGSKSDSTHTLTITGVRAEDEAVYFCGSYDSTYVGIFGAGTTLTVLGQSSRSSGGGGSSGGGGSAVTLDESGGGLQTPGGTLSLVCKASGFTFSSNAMGWVRQAPGKGLEWVAGISSDGRYTKYGSAVKGRATISRDNGQSTVRLQLNNLRAEDTGTYFCAKAFGNNYRRIYAGQIDAWGHGTEVIVSS | 115% | 82% | 91% | 5%
